Experimental data published in PMC9287160.

Target: αMβ2 expressed on K562 cells (human) (UniProt P11215)
Experiment: flow cytometry on cells; αMβ2/K562 cells, 45 min with 10 μg/ml Alexa Fluor 488-iC3b and 0, 1, 5 or 10 μg/ml hCD11bNb1; 1 mM Ca2+ and 1 mM Mg2+, with or without 1 mM Mn2+

“Alexa Fluor 488-conjugated iC3b (from UniProt P01024 23-667; P01024 1321-1663) (ligand)” gave a fold increase of iC3b* binding in the presence of hCD11bNb1 against none of 2 fold.
